Here are results for one molecule from PMC2148137 (The Journal of Cell Biology, 1998).

This assay has as its target T1, GST–Kic1p full-length fusion (S. cerevisiae, UniProt P38692 1-1080).
T1 sequence (looked up): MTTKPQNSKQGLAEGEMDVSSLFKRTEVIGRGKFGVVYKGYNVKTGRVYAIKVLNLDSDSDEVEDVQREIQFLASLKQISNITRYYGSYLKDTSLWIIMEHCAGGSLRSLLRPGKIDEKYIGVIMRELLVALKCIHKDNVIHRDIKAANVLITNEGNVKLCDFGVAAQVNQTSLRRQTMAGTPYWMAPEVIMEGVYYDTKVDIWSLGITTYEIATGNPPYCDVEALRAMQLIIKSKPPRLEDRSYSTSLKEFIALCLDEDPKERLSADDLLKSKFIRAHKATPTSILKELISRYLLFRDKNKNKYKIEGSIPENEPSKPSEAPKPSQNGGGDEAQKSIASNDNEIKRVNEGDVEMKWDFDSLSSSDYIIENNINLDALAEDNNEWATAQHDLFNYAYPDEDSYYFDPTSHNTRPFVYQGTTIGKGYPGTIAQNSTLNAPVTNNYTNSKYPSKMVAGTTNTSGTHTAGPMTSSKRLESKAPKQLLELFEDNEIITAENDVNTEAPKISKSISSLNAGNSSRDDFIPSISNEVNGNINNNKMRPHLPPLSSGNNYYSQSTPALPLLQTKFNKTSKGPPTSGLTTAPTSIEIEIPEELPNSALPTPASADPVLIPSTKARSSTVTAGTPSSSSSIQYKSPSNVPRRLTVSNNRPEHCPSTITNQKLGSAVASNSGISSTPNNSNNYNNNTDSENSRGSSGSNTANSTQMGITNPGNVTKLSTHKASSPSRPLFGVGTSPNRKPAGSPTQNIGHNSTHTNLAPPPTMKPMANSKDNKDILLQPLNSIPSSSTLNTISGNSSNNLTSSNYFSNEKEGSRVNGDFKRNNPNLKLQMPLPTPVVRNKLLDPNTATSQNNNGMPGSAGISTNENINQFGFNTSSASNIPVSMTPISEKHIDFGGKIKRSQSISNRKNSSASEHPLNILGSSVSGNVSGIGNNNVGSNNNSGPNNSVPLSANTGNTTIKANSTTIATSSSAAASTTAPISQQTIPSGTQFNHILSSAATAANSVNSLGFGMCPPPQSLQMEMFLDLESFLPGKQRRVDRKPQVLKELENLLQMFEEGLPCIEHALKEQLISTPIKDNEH
Description: far-Western, overlay or dot blot.

B1: radiolabeled Cdc31p purified from bacteria (natural protein, S. cerevisiae, UniProt P06704 1-161, looked up)
chain: MSKNRSSLQSGPLNSELLEEQKQEIYEAFSLFDMNNDGFLDYHELKVAMKALGFELPKREILDLIDEYDSEGRHLMKYDDFYIVMGEKILKRDPLDEIKRAFQLFDDDHTGKISIKNLRRVAKELGETLTDEELRAMIEEFDLDGDGEINENEFIAICTDS
modifications: radiolabeled
Take B1: the binding result was “binds”.
